The text below walks through data of patent US20230272113A1.

Some results are limits rather than exact numbers.

The experiment concerns the target human FLT3 on transfected CHO cells (human) (UniProt P36888). Briefly: FACS, scFv on CHO-human FLT3 cells pre-incubated with FLT3 ligand (competitor). Background: Flow cytometry measures light scatter and fluorescence of single cells or particles in a stream.

B1: FL-33 (scFv)
scFv: QVTLKESGPVLVKPTETLTLTCTVSGFSLRNARMGVSWIRQPPGKTLEWLAHIFSNDEKSYSTSLKSRLTISKDTSKGQVVLTMTNMDPVDTATYYCARIVGYGSGWYGYFDYWGQGTLVTVSSGGGGSGGGGSGGGGSDIQMTQSPSSLSASVGDRVTITCRASQGIGDDLGWYQQIPGKAPKRLIYATSVLQSGVPSRFSGSGSGTEFTLTISSLQPEDFATYYCLQHNSYPLTFGGGTKLEIK
As to B1, the median [+ligand]/median [w/o ligand]*100 was > 75%.

B2: FL-30 (scFv)
scFv: QVTLKESGPVLVKPTQTLTLTCTFSGFSLSNARMGVSWIRQPPGKALEWLALIYWNDDKRYSPSLKSRLTITKDTSKNQVVLTMTNMDPVDTATYYCARMVGYGSGWYAYFDYWGQGTLVTVSSGGGGSGGGGSGGGGSDIQMTQSPSSLSASVGDRVTITCRASQGIRNDLGWYQQKPGKAPKRLIYAASSLQSGVPSRFSGSGSGTEFTLTISSLQPEDFATYYCLQHNSYPLTFGGGTKVEIK
Regarding B2, the median [+ligand]/median [w/o ligand]*100 was > 75%.

B3: FL-19 (scFv)
scFv: QVTLKESGPTLVKPTETLTLTCTVSGFSLSYARMGVSWIRQPPGKALEWLAQIFSNDEKSYSTSLKSRLTISKDTSKSQVVLTMTDMDPEDTATYYCARIVGYGTGWYGYFDYWGQGTQVTVSSGGGGSGGGGSGGGGSDIQMTQSPSSLSASVGDRVTITCRASQDIGDDLGWYQQKPGKAPKRLIYAASTLQSGVPFRFSGSGSGTDFTLTISSLQPEDFATYYCLQHNSYPLTFGGGTKVEIK
As for B3, the median [+ligand]/median [w/o ligand]*100 is > 75%.

B4: FL-21 (scFv)
scFv: QVTLKESGPALVKPTETLTLTCTFSGFSLSNARMGVSWIRQPPGKALEWLAHIFSNDEKSYSTSLKSRLTISKDTSKSQVVLTMTNMDPVDTATYYCARIPGYGGNFYYHYYGMDVWGQGTTVTVSSGGGGSGGGGSGGGGSDIQMTQSPSSLSASVGDRVTITCRTSRGIRNDLGWYQQIPGRAPKRLIYAASTLQSGVPSRFSGSGSGTEFTLTISSLQPEDFATYYCLQHNNFPWTFGQGTKVEIK
In the case of B4, the median [+ligand]/median [w/o ligand]*100 is > 75%.

B5: FL-24 (scFv)
scFv: QVTLKESGPALVKPTETLTLTCTVSGFSLRNVRMGVSWIRQPPGKALEWLAHIFSNDEKSYSTSLKSRLTISKDTSKSQVVLILTNMDPVDTATYFCARMPEYSSGWSGAFDIWGQGTMVTVSSGGGGSGGGGSGGGGSDIQMTQSPSSLSASVGDRVTITCRASQDIRDDLVWYQQKPGKAPKRLIYAASTLQSGVPSRFSGSGSGTEFTLTISSLQPEDFATYYCLQHHSYPWTFGQGTKVEIK
With B5, the median [+ligand]/median [w/o ligand]*100 was > 75%.

B6: FL-25 (scFv)
scFv: QVTLKESGPALVKPTETLTLTCTVSGFSFRNARMGVSWIRQPPGKALEWLAHIFSNDEKSYSTSLKSRLTISKDTSKSQVVLTLTNMDPVDTATYFCARMPEYSSGWSGAFDIWGQGTMVTVSSGGGGSGGGGSGGGGSDIQMTQSPSSLSASVGDRVTITCRASQDIRDDLGWYQQKPGKAPKRLIYAASTLQSGVPSRFTGGGSGTEFTLTISSLQPEDFATYYCLQHNSFPFTFGGGTKVEIK
For the molecule B6, the median [+ligand]/median [w/o ligand]*100 is > 75%.

B7: FL-36 (scFv)
scFv: QVTLKESGPTLVKPTETLTLTCTFSGFSLRYARMGVSWIRQPPGKALEWLAHIFSNDEKSYSTSLKSRLTISKDTSKSQVVLTLTNMDPVDTATYFCARMPEYSSGWSGAFDIWGQGTMVTVSSGGGGSGGGGSGGGGSDIQMTQSPSSLSASVGDRVTITCRASQDIRNDLAWYQQKPGKAPKRLIYAASSLQSGVPSRFSGSGSGTEFTLTISSLQPEDFATYYCLQHNSYPLTFGGGTKLEIK
In the case of B7, the median [+ligand]/median [w/o ligand]*100 was > 75%.

B8: FL-32 (scFv)
scFv: QVTLKESGPTLVKPTETLTLTCTVSGFSFRNARMGVSWIRQPPGKALEWLAHIFSNDEKSYSTSLKSRLTISKDTSKGQVVLTMTNMDPVDTATYYCARIVGYGSGWYGYFDYWGQGTLVTVSSGGGGSGGGGSGGGGSDIQMTQSPSSLSASVGDRVTITCRASQGIRNDLVWYQQKPGKAPKRLIYAASTLQSGVPSRFSGSGSGTEFILTISSLQPEDFATYFCLQHYSYPLTFGGGTKLEIK
With B8, the median [+ligand]/median [w/o ligand]*100 is > 75%.

B9: FL-20 (scFv)
scFv: QVTLKESGPALVKPTETLTLTCTLSGFSLNNARMAVSWIRQPPGKTLEWLAHIFSNDEKSYSTSLKSRLTISKDTSKSQVVLTMTNMDPEDTATYYCARIVGYGTGWYGFFDYWGQGILVTVSSGGGGSGGGGSGGGGSDIQMTQSPSSLSASVGDRVTITCRASQGIRNDLAWYQQKPGKAPKRLIYAASSLQSGVPSRFSGSGSGTEFTLTISSLQPEDFATYYCLQHNSYPLTFGGGTKVEIK
B9: the median [+ligand]/median [w/o ligand]*100 was > 75%.

B10: FL-31 (scFv)
scFv: QVTLKESGPALVKPTQTLTLTCTFSGFSLSNARMGVSWIRQPPGKALEWLAHIFSNDEKSYSTSLKSRLTISKDTSKSQVVLTMTDMDPEDTATYYCARIVGYGTGWYGFFDYWGQGILVTVSSGGGGSGGGGSGGGGSDIQMTQSPSSLSASVGDRVTITCRTSQGIRNDLGWYQQKPGKAPKRLIYAASSLQSGVPSRFSGSGSGTEFTLTISSLQPEDFATYYCLQHNSYPLTFGGGTKVEIK
Take B10: the median [+ligand]/median [w/o ligand]*100 is > 75%.

B11: FL-18 (scFv)
scFv: QVTLKESGPVLVKPTQTLTLTCTFSGFSLSNARMGVSWIRQPPGKALEWLAHIFSNDEKSFSTSLKNRLTISKDTSKSQVVLTMTNMDPVDTATYYCARMVGYGSGWYAYFDYWGQGTQVTVSSGGGGSGGGGSGGGGSDIQMTQSPSSLSASVGDRVTITCRASQSISSYLNWYQQKPGKAPKLLIYAASSLQSGVPSRFSGSGSGTDFTLTISSLQPEDFATYYCLQHNSYPLTFGGGTKVEIK
On to B11, for which the median [+ligand]/median [w/o ligand]*100 was > 75%.

B12: FL-17 (scFv)
scFv: QVTLKESGPTLVKPTETLTLTCTVSGFSLSNARMGVSWIRQPPGKALEWLANIFSNDEKSYSTSLKSRLTISKGTSKSQVVLTMTNVNPVDTGTYYCARIVGYGSGWYGYFDYWGQGTLVTVSSGGGGSGGGGSGGGGSDIQMTQSPSSLSASVGDRVTITCRASQDIRNDLGWYQQKPGKAPKRLIYATSIRQSGVPSRFTGSGSGTEFTLTISGLQPEDFATYFCLQHNSFPLTFGGGTKVEIK
Consider B12, for which the median [+ligand]/median [w/o ligand]*100 was > 75%.

B13: FL-29 (scFv)
scFv: QVTLKESGPALVKPTQTLTLTCTFSGFSLSNARMGVSWIRQPPGKALEWLAHIFSNDEKSYRTSLKSRLTISKDTSKSQVVLTMTNMDPVDTATYYCARIVGYGSGWYAYFDYWGQGTLVTVSSGGGGSGGGGSGGGGSDIQMTQSPSSLSASVGDRVTITCRASQGIRNDLGWYQQKPGKAPKRLIYAASSLQSGVPSRFSGSGSGTEFTLTISSLQPEDFATYYCLQHNSYPLTFGGGTKVEIK
For B13, the median [+ligand]/median [w/o ligand]*100 is > 75%.

B14: FL-22 (scFv)
scFv: QVTLKESGPVLVKPTETLTLTCTVSGFSFRNARMGVSWIRQPPGKALEWLAHIFSNDEKSYSTSLKSRLTISKDTSKSQVVLTLTNMDPVDTATYFCARMPEYSSGWSGAFDIWGQGTMVTVSSGGGGSGGGGSGGGGSDIQMTQSPSSLSASVGDRVTITCRASQGISNYLAWYQQKPGKAPKRLIYAASTLQSGVPSRFSGSGSGTEFTLTISSLQPEDFATYYCLQHNTYPWTFGQGTKVEIK
Regarding B14, the median [+ligand]/median [w/o ligand]*100 is > 75%.

B15: FL-27 (scFv)
scFv: QVTLKESGPVLVKPTETLTLTCTVSGFSFRNARMGVSWIRQPPGKALEWLAHIFSNDEKSYSTSLKSRLTISKDTSKSQVVLTLTNMDPVDTATYFCARMPEYSSGWSGAFDIWGQGTMVTVSSGGGGSGGGGSGGGGSDIQMTQSPSSLSASVGDRVTITCRTSQGIRNDLVWYQQKPGKAPKRLIYAASTLQSGVPSRFSGSGSGTEFTLTISSLQPEDFATYFCLQHYSYPLTFGGGTKVEIK
In the case of B15, the median [+ligand]/median [w/o ligand]*100 is > 75%.

B16: FL-23 (scFv)
scFv: QVTLKESGPALVKPTETLTLTCTVSGFSFRNARMGVSWIRQPPGKALEWLAHIFSNDEKSYSTSLKSRLTISKDTSKSQVVLTLTNMDPVDTATYFCARMPEYSSGWSGAFDIWGQGTMVTVSSGGGGSGGGGSGGGGSDIQMTQSPSSLSASVGDRVTITCRASQDIGYDLGWYQQKPGKAPKRLIYAASTLQSGVPSRFSGSGSGTEFTLIISSLQPEDFATYYCLQHNSFPWTFGQGTKVEIK
Regarding B16, the median [+ligand]/median [w/o ligand]*100 was > 75%.

B17: FL-28 (scFv)
scFv: QVTLKESGPVLVKPTETLTLTCTVSGFSFRNARMGVSWIRQPPGKALEWLAHIFSNDEKSYSTSLKSRLTISKDTSKSQVVLTLTNMDPVDTATYFCARMPEYSSGWSGAFDIWGQGTMVTVSSGGGGSGGGGSGGGGSDIQMTQSPSSLSASVGDRVTITCRASQGIGDDLGWYQQIPGKAPKRLIYATSVLQSGVPSRFSGSGSGTEFTLTISSLQPEDFATYYCLQHNSYPLTFGGGTKVEIK
For B17, the median [+ligand]/median [w/o ligand]*100 is > 75%.

B18: FL-26 (scFv)
scFv: QVTLKESGPVLVKPTETLTLTCTVSGFSFRNARMGVSWIRQPPGKALEWLAHIFSNDEKSYSTSLKSRLTISKDTSKSQVVLTLTNMDPVDTATYFCARMPEYSSGWSGAFDIWGQGTMVTVSSGGGGSGGGGSGGGGSDIQMTQSPSSLSASVGDRVTITCRASQGIRNDLVWYQQKPGKAPKRLIYGTSTLQSGVPSRFSGSGSGTEFTLTISSLQPEDFATYYCLQHNSYPLTFGGGTKVEIK
B18: the median [+ligand]/median [w/o ligand]*100 was > 75%.

B19: FL-35 (scFv)
scFv: QVTLKESGPALVKPTETLTLTCTVSGFSLNNARMGVSWIRQPPGKALEWLAHIFSNDEKSYSTSLKNRLTISKDSSKTQVVLTMTNVDPVDTATYYCARIVGYGTGWYGFFDYWGQGTQVTVSSGGGGSGGGGSGGGGSDIQMTQSPSSLSASVGDRVTITCRASQDIRDDLVWYQQKPGKAPKRLIYGTSTLQSGVPSRFSGSGSGTEFTLTISSLQPEDFATYYCLQHHSYPLTFGGGTKLEIK
Consider B19, for which the median [+ligand]/median [w/o ligand]*100 is > 75%.

B20: FL-34 (scFv)
scFv: QVTLKESGPALVKPTETLTLTCTFSGFSLRNARMGVSWIRQPPGKALEWLAHIFWNDEKSYSTSLKSRLTISKDTSKSQVVLTMTNMDPVDTATYYCARIPYYGSGSYNYGMDVWGQGTTVTVSSGGGGSGGGGSGGGGSDIQMTQSPSSLSASVGDRVTITCRASQGIRNDLGWYQQKPGKAPKRLIYAASSLQSGVPSRFSGSGSGTEFTLTISSLQPEDFATYYCLQHNSYPLTFGGGTKLEIK
As to B20, the median [+ligand]/median [w/o ligand]*100 was > 75%.
